Measurements: patent publication US20230212286A1 (INNOBATION BIO, published 2023)
Residue numbers refer to the chain shown, from its start.

T1: CD22-His tag (CD22 extracellular domain; Acrobiosystems Inc.) (UniProt P20273 20-687, limits assumed)
T1 construct: extracellular domain; Bought reagent coated at 100 ng/well; also called CD22 peptide; not shown: His tag
T1 sequence (looked up): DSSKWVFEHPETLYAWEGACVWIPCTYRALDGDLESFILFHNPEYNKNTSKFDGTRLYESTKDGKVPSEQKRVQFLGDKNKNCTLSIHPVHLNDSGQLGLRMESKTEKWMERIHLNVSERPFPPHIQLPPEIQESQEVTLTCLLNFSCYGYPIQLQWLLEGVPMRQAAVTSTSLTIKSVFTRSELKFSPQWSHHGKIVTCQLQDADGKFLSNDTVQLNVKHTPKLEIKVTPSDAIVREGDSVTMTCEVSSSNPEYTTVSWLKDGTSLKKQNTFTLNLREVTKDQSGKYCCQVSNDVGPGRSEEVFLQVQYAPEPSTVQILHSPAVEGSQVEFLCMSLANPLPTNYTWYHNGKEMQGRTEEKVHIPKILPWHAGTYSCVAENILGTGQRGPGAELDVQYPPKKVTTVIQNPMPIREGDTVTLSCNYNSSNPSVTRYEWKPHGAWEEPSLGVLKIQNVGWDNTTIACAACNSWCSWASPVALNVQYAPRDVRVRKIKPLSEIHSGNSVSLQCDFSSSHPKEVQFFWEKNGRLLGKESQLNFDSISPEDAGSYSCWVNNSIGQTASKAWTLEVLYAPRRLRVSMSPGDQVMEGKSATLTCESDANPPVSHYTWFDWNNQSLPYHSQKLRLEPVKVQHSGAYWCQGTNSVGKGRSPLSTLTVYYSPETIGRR

B1: 6B3 antibody (antibody, V domains shown)
VH: EVQLQQSGPELVKPGASVKISCKASGYTFTDYNMHWVKQSHGKSLEWIGYIYPYNGGTGYKQKFKSKATLTVDNSSSTAYMELRSLTSEDSAVYYCARLYYYGRTSYWGQGTTLTVSS
VL: DIVMTQSQKFMSTSVGDRVSVTCKASQNVGTYVAWYQQKPGQSPKALIYSASYRYSGVPDRFTGSGSGTDFTLTISIVQSEDLAEYFCHQYDSYPYTFGGGTKLEIK
notes: Monoclonal antibody from a hybridoma, detected in FACS with goat anti-mouse IgG
B2: 2A9 antibody (antibody, V domains shown)
VH: EVQLEESGAELVKPGASVKMSCKAFGYTFTTYPIEWMKQNHGKSLEWIGNFHPYNDDTKYNEKFKGKAKLTVEKSSSTVYLELSRLTSDDSAVYYCARGDYYVSSWYFDVWGAGTTVTVSS
VL: B1 VL with Y32N, I77N, H89Q, D92N, Y96L, G100S
notes: as for B1
B3: 9E9 antibody (antibody, V domains shown)
VH: EVQLEESGAELVRPGSSVKISCKASGYAFSIYWMNWVKQRPGQGLEWIGQIYPGDGDTNYNGKFKGKATLTADKSSSTAYMQLSSLTSEDSAVYFCARRGITPWFAYWGQGTLVTVSA
VL: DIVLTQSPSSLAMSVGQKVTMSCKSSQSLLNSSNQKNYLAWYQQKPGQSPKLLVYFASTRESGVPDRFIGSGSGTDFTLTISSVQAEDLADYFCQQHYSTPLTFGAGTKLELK
notes: as for B1
B4: 2G1 antibody (antibody, V domains shown)
VH: EVQLQESGPGLVAPSQSLSITCTVSGFSLTSYDISWIRQPPGKGLEWLGVIWTGGGTNYNSAFMSRLSISKDNSKSQVFLKMNSLQTDDTAIYYCVPHYYGYAMDYWGQGTSVTVSS
VL: DIVLTQSPSSLSASLGGKVTITCKASQDINKYIAWYQHKPGKGPRLLIHYTSTLQPGIPSRFSGSGSGRDYSFSISNLEPEDIATYYCLQYDNLLTFGAGTKLELK
notes: as for B1
B5: 1C2 antibody (antibody, V domains shown)
VH: QVQLQQPGAELVRPGASVKLSCKASGYTFTSYWMNWVKQRPGQGLEWIGMIDPSDSETHYNQMFKDKATLTVDKSSSTAYMQLSSLTSEDSAVYYCARWGNYDYDVWAMDYWGQGTSVTVSS
VL: DVLMTQTPLSLPVSLGDQASISCRSSQNIVHLNGNTFLEWFLQKPGQSPKLLIYKVSNRFSGVPDRFSGSGSGTDFTLKISRVEAEDLGVYYCFQGSHVPYTFGGGTKLEIK
notes: Monoclonal antibody from a hybridoma (fusion with mouse myeloma cells), detected in FACS with goat anti-mouse IgG

molecular target: T1, CD22-His tag (CD22 extracellular …); assay: ELISA, CD22-His tag coated at 100 ng/well, primary antibody 0.4 ug/ml
Experimental: 1C2, 9E9, 2A9, 2G1 and 6B3 antibodies were treated in each well, and then reacted at room temperature for 2 hours, and then washed 3 times with 1 X PBST. Secondary antibody ([…], 1:10,000) was treated and reacted at room temperature for 30 minutes, washed 3 times with 1 X PBST, and then treated with TMB for color development and reacted at room temperature for 5 minutes. Finally, the reaction was terminated by treatment with a stop solution of 1N H₂SO₄, and then the absorbance was measured at 450 nm.

Row | OD450 measurements | Binder
1 | 1.79 absorbance at 450 nm | B1
2 | 2.93 absorbance at 450 nm | B2
3 | 1.76 absorbance at 450 nm | B3
4 | 2.54 absorbance at 450 nm | B4
5 | 2.43 absorbance at 450 nm | B5
